Measured values from JP2013242308A.

Molecular target: テネイシンC (human) (UniProt P24821)
Experiment: SPR (Biacore 2000)

B1: 抗TNC−4F10のscFvフラグメント(scFv 4F10) (scFv, not shown: small tags and cut ends)
scFv: EVLLQQSGPELVKPGASVKIPCKASGYTFTDYNMDWMKQSHGKSLEWIGDINPKSGNSIYNQKFKGKATLTVDKSSSTAYMELRSLTSEDTAVYYCAGRDWSAWFAFWGQGTLVSVSAGGGGSGGGGSGGGGSDVVMTQTPLTLSVIIGQPASISCKSSQSLLYSNGKTYLNWLLQRPGQSPKRLIYLVSKLDSGVPDRFTGSGSGTDFTLKISRVEAEDLGDYYCVQTTHFPWTFGGGTKLEIKDYKDDDDK
  Kd: 40 nM
